{
  "source": "paper PMC7979937",
  "about": "“Crystal structures of human MGST2 reveal synchronized conformational changes regulating catalysis” (Nature Communications, 2021)",
  "molecular_target": "the molecule itself",
  "assay": "crystal structure; crystals grown in lipidic cubic phase (8.8 MAG for apo, 9.9 MAG for GSH and GSO3- complexes), protein at 30 mg/ml, 20 °C; apo, with 7 mM GSH, with 7 mM GSO3-; homo-trimer",
  "data": [
    {"protein": "Microsomal glutathione S-transferase 2 (human) (enzyme, Microsomal glutathione S-transferase 2 (MGST2), human; cDNA from IMAGE clone 5277851 cloned in pPICZA; Integral membrane protein, homo-trimer in the crystals; The terminal ends are disordered in the crystal structures; also called MGST2; apo-MGST2; source: Pichia pastoris KM71H, purified (Ni-Sepharose, S-hexylglutathione agarose, SEC) in DDM) not shown", "values": [
      {"measurement": "stoichiometry N", "result": 3}
    ]}
  ]
}
